Measured values: patent US20110293511A1, “SPECIFIC BINDING PROTEINS AND USES THEREOF” (priority 2009, published 2011)

Columns and labels:
[1] = tested on: A431 xenografts; test: s.c. xenograft therapy study; format: in vivo, nude mice; conditions: established; 6×1 mg IP
Experimental: Tumor cells (3×10^6) in […] of PBS were inoculated subcutaneously into both flanks of 4-6 week old female nude mice (Animal Research Centre, Western Australia, Australia). […] Treatment was continued for a total of 6 doses, 3 times per week for 2 weeks. In the established model, treatment was started when tumors had reached a mean volume of 65±6.42 mm^3 (U87MG.Δ2-7), 84±9.07 mm3 (U87MG), 73±7.5 mm^3 (U87MG.wtEGFR) or 201±19.09 mm^3 (A431 tumors). Tumor volume in mm^3 was determined using the formula […], where length was the longest axis and width the measurement at right angles to the length (Clark et al. (2000) Therapeutic efficacy of anti-Lewis (y) humanized 3S 193 radioimmunotherapy in a breast cancer model: enhanced activity when combined with Taxol chemotherapy. Clin. Cancer Res. 6, 3621-3628). Data was expressed as mean tumor volume±S.E. for each treatment group. Statistical analysis was performed at given time points using Student's t-test. Animals were euthanized when the xenografts reached an approximate volume of 1.5 cm^3 and the tumors excised for histological examination. This research project was approved by the Animal Ethics Committee of the Austin and Repatriation Medical Centre.
AG1478 (4-(3-Chloroanilino)-6,7-dimethoxyquinazoline) is a potent and selective inhibitor of the EGFR kinase versus HER2-neu and platelet-derived growth factor receptor kinase (Calbiochem Cat. No. 658552). […] The results are illustrated in FIG. 12. […] 400 μg AG1478 was administered at 0, 2, 4, 7, 9, and 11 days post xenograft.
With respect to “(iv),” different groups of mice received either 0.5 mg/injection of each mAb, or 0.25 mg/injection of each mAb.
Finally, the fourth group of mice, which had been inoculated with A431 cells, received injections as in groups I and III, at 8, 10, 12 and 14 days after inoculation. At the start, the average tumor size was 71 mm^3.
To establish xenografts, mice were injected subcutaneously into the right and left inguinal mammary line with 1×10^6 A431 adenocarcinoma cells or 1×10^6 U87MG.de2-7 glioma cells in 100 μl of PBS. Tumor volume (TV) was calculated by the formula […] where length was the longest axis and width the measurement at right angles to length. […] Therapy was administered on days 6, 8, 11, 13, 15 and 18 for A431, and days 4, 6, 8, 11, 13 and 15 for the U87MG.de2-7 cell lines respectively. Mean±SEM tumor volumes until termination of the experiments due to ethical considerations of tumor burden are presented in FIG. 91 for the A431 xenograft until day 25, and in FIG. 92 for U87MG.de2-7 xenografts until day 31.

[2] = tested on: A431 cells; test: ADCC assay; format: cell-based, human; conditions: 1 μg/mL; representative experiment
[3] = biological target: T1, denatured soluble domain of the EGFR (sEGFR) (Homo sapiens, UniProt P00533); test: competition ELISA with biotinylated mAb806; format: binding; conditions: after unlabeled blocking antibody
T1 construct: sEGFR is the recombinant extracellular domain (amino acids 1-621) of the wild-type EGFR); host or cells: CHO cells
Experimental: Briefly, the denatured soluble domain of the EGFR (sEGFR) was coated on to ELISA plates. The unlabeled 124 or 1133 antibodies were then added across the plate in increasing concentrations.

[4] = tested on: xenograft A431; test: immunohistochemical analysis on xenograft tumors; format: binding, human
Description: The murine fibroblast line NR6ΔEGFR was used as immunogen. Mouse hybridomas were generated by immunizing BALB/c mice five times subcutaneously at 2- to 3-week intervals, with 5×10^5-2×10^6 cells in adjuvant. Complete Freund's adjuvant was used for the first injection. Thereafter, incomplete Freund's adjuvant (Difco™, Voigt Global Distribution, Lawrence, Kans.) was used. Spleen cells from immunized mice were fused with mouse myeloma cell line SP2/0 (Shulman et al. (1978) Nature 276:269-270). Supernatants of newly generated clones were screened in hemadsorption assays for reactivity with cell line NR6, NR6wtEGFR, and NR6ΔEGFR and then analyzed by hemadsorption assays with human glioblastoma cell lines U87MG, U87MGwtEGFR, and U87ΔEGFR. Selected hybridoma supernatants were subsequently tested by western blotting and further analyzed by immunohistochemistry. Newly generated mAbs showing the expected reactivity pattern were purified.
Bound antibody was detected using the Dako Envision+ HRP detection system as per manufacturer's instructions. Sections were finally rinsed with water, counterstained with hematoxylin and mounted.

[5] = tested on: xenograft U87MGΔEGFR; test: immunohistochemical analysis on xenograft tumors; format: binding, human

Row | Binding of biotin-labeled 806 [3] | Molecule | xenograft growth versus PBS vehicle control [1] | ADCC cytotoxicity [2] | Immunohistochemical staining [4] | Immunohistochemical staining [5]
1 |  | hu806: humanized (veneered) 806 antibody, human IgG1; SEQ ID NO:42 and SEQ ID NO:47 (antibody, V domains shown) VH: MDWTWRILFLVAAATGVHSQVQLQESGPGLVKPSQTLSLTCTVSGYSISSDFAWNWIRQPPGKGLEWMGYISYSGNTRYQPSLKSRITISRDTSKNQFFLKLNSVTAADTATYYCVTAGRGFPYWGQGTLVTVSS VL: MDWTWRILFLVAAATGVHSDIQMTQSPSSMSVSVGDRVTITCHSSQDINSNIGWLQQKPGKSFKGLIYHGTNLDDGVPSRFSGSGSGTDYTLTISSLQPEDFATYYCVQYAQFPWTFGGGTKLEIKR | marked reduction in A431 xenograft growth | 30% |  | 
2 | None | mAb1133: murine IgG2a monoclonal antibody, clone 1133; VH SEQ ID NO:32, VL SEQ ID NO:37 (antibody, listed as Mus musculus, V domains shown) VH: DVQLQGSGPSLVKPSQSLSLTCTVTGYSITSDYAWNWIRQFPGNKLEWMGYISYSGNTRYNPSLRSRISITRDTSKNQFFLQLNSVTTEDTATYYCATAGRGFPYWGQGTLVTVSA VL: DILMTQSPSSMSVSLGDTVNITCHSSQDINSNIGWLQQKPGKSFKGLIYHGTNLDDGVPSRFSGSGSGADYSLTISSLESEDFADYYCVQYGQFPWTFGGGTKLEIKR |  |  | pos. (predominantly basal | pos.
